The term Kd denotes a measure of binding affinity in units of concentration. Low readings indicate a tighter complex, high ones a looser complex. The EC50 is the concentration at which the effect is half-maximal. The low end stands for higher potency in that assay, the high end for lower potency in that assay. A word on the koff: it is the first-order rate constant of dissociation. Low values mean slow dissociation, high ones fast dissociation. One may read the kon as the second-order rate constant of association.

From patent US20260150817A1 come the findings set out here.

Where two headings read alike, the source gives them in different places.

In assay [1] the target is SARS-Cov2 Spike Active Trimer SAT (R&D Systems; Catalog No. 10549-CV) (SARS-CoV-2) (UniProt P0DTC2).
Assay [2] shares this target. The experiment in a line: SPR (Carterra).
The target is the same in assay [3]. The assay can be described thus: ELISA, serially diluted purified Nb-Fc against SAT antigen. Background: In an ELISA, binding on a coated surface is turned into a signal by an enzyme label.
The target is the same in assay [4]. The assay can be described thus: SPR (Biacore). For orientation: Surface plasmon resonance follows binding to a sensor surface in real time, without labels.
The target in assay [5] is SARS-COV-2 Spike(S) protein with an inactivated furin site, on HEK293-Spike cells (293-SARS2-S-dfur, (SARS-CoV-2) (UniProt P0DTC2)).
Assay [6] concerns the target SARS-Cov2 Spike Active Trimer SAT (R&D Systems; Catalog No. 10549-CV) (SARS-CoV-2) (UniProt P0DTC2). This is another data set of the same source.

The substance “human SAT Nb-Fc control VH-Ab-8 (HAb8-S) (Fc fusion)” came in with a Kd in assay [1] of 19.8 nM. The same substance returned a Kd in assay [2] of 37.3 nM. Further, in assay [3], the EC50 came out at 0.018 nM. Also, in assay [4], the Kd was found to be 5.7 nM. Besides, in assay [5], the GMFI (HEK293-Spike) turned out to be 430 and the GMFI Ratio over No 1st Ab control (HEK293-Spike) was determined as 21.1. In assay [6], this substance registered a Response of 0.489, a koff of 0.00294 s⁻¹ and a kon of 149000 M⁻¹ s⁻¹.
